Publication PMC2874613 (Traffic (Copenhagen, Denmark), 2010)

T1: GST-[1-313]GGA3 (UniProt Q9NZ52 1-313)
T1 sequence (looked up): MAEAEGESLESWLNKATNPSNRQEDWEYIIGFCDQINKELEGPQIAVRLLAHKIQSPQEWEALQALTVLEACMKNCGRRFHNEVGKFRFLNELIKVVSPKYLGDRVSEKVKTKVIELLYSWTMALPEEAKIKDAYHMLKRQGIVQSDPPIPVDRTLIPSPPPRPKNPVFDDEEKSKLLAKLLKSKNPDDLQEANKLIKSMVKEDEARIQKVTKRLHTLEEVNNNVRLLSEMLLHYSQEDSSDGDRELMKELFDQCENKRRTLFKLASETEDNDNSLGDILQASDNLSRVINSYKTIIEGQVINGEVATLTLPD

B1: Arf1-GFP expressed in HEK293T cells (human Arf1/pEGFPN1) (natural protein)
chain: not shown
B2: Arf1 expressed in HEK293T cells (human Arf1/pcDNA3.1) (natural protein)
chain: not shown
B3: Arf1-HA expressed in HEK293T cells (natural protein)
chain: not shown

Each binder was assayed against T1, GST-[1-313]GGA3 (assay: pull-down).

percent of total Arf precipitated with GST-[1-313]GGA3	Binder
> 0.3 % of the total	B1
< 0.15 % of the total	B2
< 0.15 % of the total	B3
